Assay results taken from US10568344B2, “Methods of improving animal performance” (Novozymes A/S, priority 2015, dated 2020).
Read-outs that look alike come from different tables or passages of the source.

How the values were obtained:
[1] = tested on: Exiguobacterium undae (DSM14481); test: Lysozyme activity turbidity assay (optical density drop); type: biochemical; conditions: pH 5
[2] = tested on: Clostridium perfringens DSM756; type: cell-based; conditions: for Diameter of zone of incomplete inhibition of growth visible after MTT coloring: 100 μg/ml; for Diameter of clearing zone: lysozymes 100 μg/ml, bacitracin 50 μg/ml
[3] = In vivo broiler trial 3, growth performance; design: species or system male broiler chickens; Motality: unit not given here
Protocol: The in vivo trial was carried out as described in example 7, except the feed was supplemented with the GH25 lysozyme (SEQ ID NO: 1) at 12.5 or 25 mg per kg feed, the GH24 lysozyme (SEQ ID NO: 4) at 12.5 or 25 mg per kg feed or with Avilamycin at an inclusion level of 10 mg/kg. No additional enzymes (e.g. phytase) were added to the feed. The experimental diets (Starter, Grower and Finisher) were based on soybean meal, wheat and rye (12%) as main ingredients (Table 8). The diets were formulated to contain 225 g crude protein and 12.5 MJ/kg MEN for the starter period, 215 g crude protein and 12.8 MJ/kg MEN for the grower period and 205 g crude protein and 13.0 MJ/kg MEN for the finisher period.

[4] = tested on: Faecalibacterium; test: Microbiota analysis of broiler trial 4 (16S rRNA), Faecalibacterium; type: in vivo, chicken; design: key to Observed shift compared to the control group, Significance: Significant change (+++), padj < 0.05; Numerical change (+); conditions: 50 ppm
[5] = tested on: Clostridiales; test: Microbiota analysis of broiler trial 4 (16S rRNA), Clostridiales; type: in vivo, chicken; design: key to Observed shift compared to the control group, Significance: Significant change (+++), padj < 0.05; Numerical change (+); conditions: 50 ppm
[6] = tested on: Bacteroidales; test: Microbiota analysis of broiler trial 4 (16S rRNA), Bacteroidales; type: in vivo, chicken; design: key to Observed shift compared to the control group, Significance: Significant change (+++), padj < 0.05; Numerical change (+); conditions: 50 ppm
[7] = tested on: Micrococcus lysodeikticus ATTC No. 4698; test: Lysozyme activity turbidity assay (optical density drop); conditions: pH 4
[8] = Finisher (d 36-42), 12.5 mg/kg feed
[9] = Finisher (d 36-42), 25 mg/kg feed
[10] = Grower (d 22-36), 12.5 mg/kg feed
[11] = Grower (d 22-36), 25 mg/kg feed
[12] = Starter (d 1-22), 12.5 mg/kg feed
[13] = Starter (d 1-22), 25 mg/kg feed
[14] = Whole period (d 1-42), 12.5 mg/kg feed
[15] = Whole period (d 1-42), 25 mg/kg feed

B1: SEQ ID NO: 1: mature amino acid sequence of a wild type GH25 lysozyme from Acremonium alcalophilum with N-terminal SPIRR (protein)
chain: SPIRRRIPGFDISGWQPTTDFARAYANGDRFVYIKATEGTTFKSSAFSRQYTGATQNGFIRGAYHFAQPAASSGAAQARYFASNGGGWSKDGITLPGALDIEYNPNGATCYGLSQSAMVNWIEDFVTTYHGITSRWPVIYTTTDWWTQCTGNSNRFANRCPLWIARYASSVGTLPNGWGFYTFWQYNDKYPQGGDSNWFNGDASRLRALANGD
modifications: Wild type sequence with N-terminal SPIRR
Lysozyme activity as measured by Optical Density Drop [1]: + (pH 5) | Inhibition zone ([2]; 1/10 MHB, pH7, both experiments): 11-13 mm | Diameter of zone of incomplete inhibition of growth visible after MTT coloring ([2]; Experiment 1, 1/2 MHB pH 6): 20 mm | Diameter of clearing zone ([2]; Experiment 1, 1/2 MHB pH 6): 6 mm | Diameter of clearing zone ([2]; Experiment 1, 1/10 MHB pH 7): 13 mm | Diameter of zone of incomplete inhibition of growth visible after MTT coloring ([2]; Experiment 2, 1/2 MHB pH 6): 19 mm | Diameter of clearing zone ([2]; Experiment 2, 1/2 MHB pH 6): 4 mm | Diameter of clearing zone ([2]; Experiment 2, 1/10 MHB pH 7): 11 mm | Larger incomplete clearing zone ([2]; ½ MHB, pH 6, after coloring with MTT): 19-20 mm | Clearing zone diameter ([2]; ½ MHB, pH 6, both experiments): 4-6 mm | Benefit over the NC diet ([3]; 12.5 mg/kg): did not show any benefit | FCR [3, 8]: 1.953 | FCR, Relative to C (%) [3, 8]: 99.6% | Feed intake [3, 8]: 1544 g/b | Feed intake, Relative to C (%) [3, 8]: 103.8% | Weight gain [3, 8]: 794 g/b | Weight gain, Relative to C (%) [3, 8]: 104.2% | FCR [3, 9]: 1.968 | FCR, Relative to C (%) [3, 9]: 100.4% | Feed intake [3, 9]: 1522 g/b | Feed intake, Relative to C (%) [3, 9]: 102.3% | Weight gain [3, 9]: 775 g/b | Weight gain, Relative to C (%) [3, 9]: 101.8% | FCR [3, 10]: 1.734 | FCR, Relative to C (%) [3, 10]: 100.6% | Feed intake [3, 10]: 2365 g/b | Feed intake, Relative to C (%) [3, 10]: 103.5% | Weight gain [3, 10]: 1365 g/b | Weight gain, Relative to C (%) [3, 10]: 102.8% | FCR [3, 11]: 1.692 | FCR, Relative to C (%) [3, 11]: 98.2% | Feed intake [3, 11]: 2308 g/b | Feed intake, Relative to C (%) [3, 11]: 101.0% | Weight gain [3, 11]: 1364 g/b | Weight gain, Relative to C (%) [3, 11]: 102.7% | FCR [3, 12]: 1.466 | FCR, Relative to C (%) [3, 12]: 101.8% | Feed intake [3, 12]: 1621 g/b | Feed intake, Relative to C (%) [3, 12]: 102.7% | Weight gain [3, 12]: 1106 g/b | Weight gain, Relative to C (%) [3, 12]: 100.9% | FCR [3, 13]: 1.413 | FCR, Relative to C (%) [3, 13]: 98.1% | Feed intake [3, 13]: 1596 g/b | Feed intake, Relative to C (%) [3, 13]: 101.1% | Weight gain [3, 13]: 1129 g/b | Weight gain, Relative to C (%) [3, 13]: 103.0% | EPEF [3, 14]: 398 | EPEF, Relative to C (%) [3, 14]: 95.2% | FCR [3, 14]: 1.695 | FCR, Relative to C (%) [3, 14]: 100.9% | Feed intake [3, 14]: 5529 g/b | Feed intake, Relative to C (%) [3, 14]: 103.3% | Motality [3, 14]: 13.1 | Weight gain [3, 14]: 3264 g/b | Weight gain, Relative to C (%) [3, 14]: 102.5% | EPEF [3, 15]: 428 | EPEF, Relative to C (%) [3, 15]: 102.4% | FCR [3, 15]: 1.660 | FCR, Relative to C (%) [3, 15]: 98.8% | Feed intake [3, 15]: 5426 g/b | Feed intake, Relative to C (%) [3, 15]: 101.4% | Motality [3, 15]: 8.8 | Weight gain [3, 15]: 3269 g/b | Weight gain, Relative to C (%) [3, 15]: 102.6% | EPEF improvement compared to NC diet ([3]; whole period, 25 mg/kg): 1.7% | FCR improvement compared to NC diet ([3]; whole period, 25 mg/kg): 1.4% | Observed shift compared to the control group, Significance ([4]; Genus level (Faecalibacterium)): + | Observed shift compared to the control group, Significance ([4]; OTU level (Faecalibacterium species)): +++ (Significant change (+++), padj < 0.05) | OTU #27 (Faecalibacterium) Change vs control ([4]; OTU level): 3.45 | OTU #27 (Faecalibacterium) Ratio vs control ([4]; OTU level): 16.53 | OTU #27 (Faecalibacterium) abundance, Lysozyme treatment ([4]; OTU level, ceca content): 3.67 | Faecalibacterium Change vs control ([4]; genus level): 5.65 | Faecalibacterium Ratio vs control ([4]; genus level): 4.04 | Faecalibacterium abundance, Lysozyme treatment ([4]; genus level, ceca content): 7.50 | Observed shift compared to the control group, Significance ([5]; Order level (Clostridiales)): + | Clostridiales Change vs control ([5]; order level): 5.3792 | Clostridiales Ratio vs control ([5]; order level): 1.1671 | Clostridiales abundance, Lysozyme treatment ([5]; order level, ceca content): 37.5638 | Observed shift compared to the control group, Significance ([6]; Order level (Bacteroidales)): + | Bacteroidales Change vs control ([6]; order level): −15.8551 | Bacteroidales Ratio vs control ([6]; order level): 0.7538 | Bacteroidales abundance, Lysozyme treatment ([6]; order level, ceca content): 48.5437 | Lysozyme activity as measured by Optical Density Drop [7]: + (pH 4)
